According to publication PMC11584650, “An inhibitory segment within G-patch activators tunes Prp43-ATPase activity during ribosome assembly”:

How the values were obtained:
[1] = molecular target: Prp43;Tma23M (Saccharomyces cerevisiae;Saccharomyces …, UniProt P53131;Q03525 1-767;43-111, |); test: fluorescence polarization; 5 mM Mg2+, no nucleotide listed; affinity unaltered vs Prp43 alone; 50 mM HEPES pH 7.5, 50 mM KCl, 5 mM MgCl2, 0.05% Tween-20, 1 mM DTT; 5 nM Cy5-U12 RNA, protein 20 pM to 2.5 uM; temperature not stated; conditions: protein: recombinant;recombinant; tags: His6 (HRV site; pET47b);GST (pGEX-6P-1; copies: 1;1; single strand
[2] = molecular target: Prp43;Pxr1M (Saccharomyces cerevisiae;Saccharomyces …, UniProt P53131;P53335 1-767;72-137, |); test: as above; conditions: protein: recombinant;recombinant; tags: His6 (HRV site; pET47b);GST (pGEX-6P-1; copies: 1;1; single strand
[3] = molecular target: Prp43 (Saccharomyces cerevisiae, UniProt P53131 1-767); test: fluorescence polarization; 5 mM Mg2+, no nucleotide listed; 50 mM HEPES pH 7.5, 50 mM KCl, 5 mM MgCl2, 0.05% Tween-20, 1 mM DTT; 5 nM Cy5-U12 RNA, protein 20 pM to 2.5 uM; temperature not stated; conditions: protein: recombinant; tags: His6 (HRV site; pET47b); single strand

Measured: binding result

Chain of Prp43 (P53131 whole entry): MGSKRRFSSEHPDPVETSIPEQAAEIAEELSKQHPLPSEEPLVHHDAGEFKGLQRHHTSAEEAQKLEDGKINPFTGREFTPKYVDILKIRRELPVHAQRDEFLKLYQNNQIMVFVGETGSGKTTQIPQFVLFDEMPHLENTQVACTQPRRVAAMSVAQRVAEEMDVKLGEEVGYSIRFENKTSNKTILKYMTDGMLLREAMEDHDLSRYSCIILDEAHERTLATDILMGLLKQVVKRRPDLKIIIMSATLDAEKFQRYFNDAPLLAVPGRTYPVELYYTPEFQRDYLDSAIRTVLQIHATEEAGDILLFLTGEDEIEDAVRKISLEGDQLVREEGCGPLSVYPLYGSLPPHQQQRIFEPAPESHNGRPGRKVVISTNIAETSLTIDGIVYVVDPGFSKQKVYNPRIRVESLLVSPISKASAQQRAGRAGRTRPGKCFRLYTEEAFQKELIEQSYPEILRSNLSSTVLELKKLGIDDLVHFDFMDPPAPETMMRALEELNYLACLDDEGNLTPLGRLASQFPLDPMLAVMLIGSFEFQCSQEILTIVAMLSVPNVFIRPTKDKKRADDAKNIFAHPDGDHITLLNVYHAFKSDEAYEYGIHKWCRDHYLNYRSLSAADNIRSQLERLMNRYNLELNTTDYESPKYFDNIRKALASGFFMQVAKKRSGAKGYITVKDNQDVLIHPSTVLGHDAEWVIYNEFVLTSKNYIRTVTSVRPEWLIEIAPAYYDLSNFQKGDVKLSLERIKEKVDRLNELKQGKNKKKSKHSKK
Chain of Prp43;Pxr1M (P53131 whole entry, chain 1 of 2): as the sequence (P53131 whole entry) above
Chain of Prp43;Pxr1M (P53335 72-137, chain 2 of 2): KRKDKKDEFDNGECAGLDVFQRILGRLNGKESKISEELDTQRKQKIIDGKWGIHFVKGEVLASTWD
Chain of Prp43;Tma23M (P53131 whole entry, chain 1 of 2): as the sequence (P53131 whole entry) above
Chain of Prp43;Tma23M (Q03525 43-111, chain 2 of 2): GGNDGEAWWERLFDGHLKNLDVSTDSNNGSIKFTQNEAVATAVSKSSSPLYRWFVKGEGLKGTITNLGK

UUUUUUUUUUUU (ssRNA) [Cy5-U12 RNA]
binds: [1] | [2] | [3]
